The source of these data is article PMC5051544.

This test has as its target T1, Bacteriorhodopsin, P02945.
T1 chain: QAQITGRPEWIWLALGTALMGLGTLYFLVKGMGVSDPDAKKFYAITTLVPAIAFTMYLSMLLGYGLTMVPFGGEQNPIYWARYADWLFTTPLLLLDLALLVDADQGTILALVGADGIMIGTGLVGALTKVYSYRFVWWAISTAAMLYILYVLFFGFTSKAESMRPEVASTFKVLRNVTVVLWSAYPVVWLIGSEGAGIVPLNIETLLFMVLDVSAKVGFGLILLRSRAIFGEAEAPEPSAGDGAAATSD
Kind of test: SEC. Particulars: remark: other sources report otherwise.

B1: Bacteriorhodopsin, P02945 14-262 (natural protein)
chain: T1 chain
Molecule B1 yielded a stoichiometry N of 3 per nanodisc.

Usually stoichiometry N stands for a count of units in the complex or per binding partner.
